Laboratory results: the supplement of paper PMC10065799, “High-throughput profiling of sequence recognition by tyrosine kinases and SH2 domains using bacterial peptide display” (eLife, 2023)

biological target: Jak2 (UniProt O60674); test: phosphorylation enrichment, bacterial display (enrichment ratio); higher = better substrate or ligand; peptides without Tyr show the background
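Also: 11-residue human phosphosite peptides and single-mutation variants displayed on the E. coli surface, counted by deep sequencing, each peptide's frequency after selection divided by its frequency in the unselected input library; frequency after pTyr selection over input frequency; kinase dosed for 20-30% of maximal phosphorylation in three min.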

Jak2, sequence (O60674 whole entry, looked up): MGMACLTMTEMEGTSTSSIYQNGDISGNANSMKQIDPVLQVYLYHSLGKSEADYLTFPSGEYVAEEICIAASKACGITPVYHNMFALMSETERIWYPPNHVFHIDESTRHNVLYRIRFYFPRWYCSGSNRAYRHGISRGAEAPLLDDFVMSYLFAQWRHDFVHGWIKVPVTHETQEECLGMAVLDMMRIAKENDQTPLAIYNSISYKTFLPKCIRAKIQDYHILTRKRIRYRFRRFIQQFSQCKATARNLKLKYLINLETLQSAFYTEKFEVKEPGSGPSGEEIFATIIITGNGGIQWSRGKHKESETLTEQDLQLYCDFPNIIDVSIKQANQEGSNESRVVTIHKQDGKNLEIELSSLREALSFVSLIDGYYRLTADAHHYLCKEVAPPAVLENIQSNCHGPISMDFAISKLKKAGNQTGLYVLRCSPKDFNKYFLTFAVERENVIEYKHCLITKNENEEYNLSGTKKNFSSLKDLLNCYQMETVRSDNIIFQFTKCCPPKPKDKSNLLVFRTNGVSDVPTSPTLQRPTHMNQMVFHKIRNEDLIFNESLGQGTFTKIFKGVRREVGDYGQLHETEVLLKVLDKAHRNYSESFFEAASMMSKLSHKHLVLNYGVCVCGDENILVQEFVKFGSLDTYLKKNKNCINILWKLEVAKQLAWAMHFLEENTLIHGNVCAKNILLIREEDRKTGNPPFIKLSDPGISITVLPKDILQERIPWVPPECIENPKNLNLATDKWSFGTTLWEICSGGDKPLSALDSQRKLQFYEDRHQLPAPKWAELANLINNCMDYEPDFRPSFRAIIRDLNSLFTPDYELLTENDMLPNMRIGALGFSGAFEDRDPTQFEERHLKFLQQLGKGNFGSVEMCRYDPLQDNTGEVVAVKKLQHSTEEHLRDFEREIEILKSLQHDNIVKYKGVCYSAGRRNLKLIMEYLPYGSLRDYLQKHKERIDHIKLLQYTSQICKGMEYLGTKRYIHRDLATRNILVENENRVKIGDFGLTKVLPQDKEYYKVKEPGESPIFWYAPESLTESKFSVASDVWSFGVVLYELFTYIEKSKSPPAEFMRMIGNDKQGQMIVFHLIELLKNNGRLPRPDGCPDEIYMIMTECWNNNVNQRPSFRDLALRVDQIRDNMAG

Going from CNTIHYNFMCN [TP53_Y234_T230N_YF] to ALWYIYSHTRS [ENG_Y614], the phosphorylation enrichment rises from 0.636 to 1.14.

Compared with RSFSPYDFQPC [TNS1_Y796_YF], NAMRRHIEEFQ [MNS1_Y244_Y244H] is lower in phosphorylation enrichment: 1.28 for the first, 0.672 for the second.

Compared with HGAKVYIDPFT [EPHB4_Y590_T587A], LGGSPYPRVPV [FGFR1_Y701_G703R] is lower in phosphorylation enrichment: 0.761 for the first, 0.507 for the second.

First: LSQQVYRVNLS [FAT4_Y480_F475L]
Second: RPFVFYFSFLL [PTEN_Y177_R173P_YF]
The phosphorylation enrichment of the first is lower: 0.647 for the first, 1.55 for the second.

Compared with IHADICRWFNI [MARS1_Y344_Y344C], ESPGLYGFLNV [BCR_Y910] is higher in phosphorylation enrichment: 0.809 for the first, 0.922 for the second.

First: FKPGFYNLKEK [LAMA1_Y490_C485Y_YF]
Second: DAICFYRMENA [NPHS2_Y195_YF]
The phosphorylation enrichment of the first is lower: 0.499 for the first, 1.19 for the second.

Compared with WFKKFYDANYD [MAPRE2_Y158], AHAGEYGVEAL [HBA1_Y25_A27V] is lower in phosphorylation enrichment: 0.899 for the first, 0.793 for the second.

Going from TVMGLYQKSSL [MYH7_Y609_V606M] to PFTRNYYVWAV [CYBA_Y87_R90W], the phosphorylation enrichment rises from 0.707 to 2.5.

First: GSETPYMDRTP [ESS2_Y335_V336M]
Second: REVKAYGAGLL [TH_Y419_G414R]
The phosphorylation enrichment of the first is lower: 0.499 for the first, 0.53 for the second.

Going from HELYVYKSDEN [DOCK3_Y548_C550S] to IIEDPYFGNDS [ACP1_Y132_YF], the phosphorylation enrichment falls from 1.75 to 1.45.

First: RSHLSYDVTPE [IQGAP3_Y1098_P1097S]
Second: RLQAAYNLVKR [PFKM_Y103_R100Q]
The phosphorylation enrichment of the first is higher: 1.05 for the first, 0.866 for the second.

Compared with IVFVICDEVVK [SLC25A1_Y297_Y297C], SSEFHCVGGFF [CTSC_Y347_Y347C_YF] is lower in phosphorylation enrichment: 1.01 for the first, 0.858 for the second.

Going from QEIATYRRLQE [KRT14_Y415_L419Q] to AHAGKYGAEAL [HBA1_Y25_E24K], the phosphorylation enrichment falls from 1.51 to 0.544.

Going from PGVDIYISPNM [PADI3_Y51] to MEFAKYGSLRG [RET_Y809_V804M_YF], the phosphorylation enrichment falls from 1.75 to 0.495.

Work on VDSNPYSHLMA [UBA5_Y53_R55H] yielded a phosphorylation enrichment of 0.577.

system: c-Abl (mouse); test: as above

Compared with CNTIHYNFMCN [TP53_Y234_T230N_YF], ALWYIYSHTRS [ENG_Y614] is higher in phosphorylation enrichment: 0.601 for the first, 0.807 for the second.

Going from RSFSPYDFQPC [TNS1_Y796_YF] to NAMRRHIEEFQ [MNS1_Y244_Y244H], the phosphorylation enrichment falls from 1.18 to 0.628.

Going from HGAKVYIDPFT [EPHB4_Y590_T587A] to LGGSPYPRVPV [FGFR1_Y701_G703R], the phosphorylation enrichment falls from 0.831 to 0.483.

First: LSQQVYRVNLS [FAT4_Y480_F475L]
Second: RPFVFYFSFLL [PTEN_Y177_R173P_YF]
The phosphorylation enrichment of the first is lower: 0.637 for the first, 1.29 for the second.

First: IHADICRWFNI [MARS1_Y344_Y344C]
Second: ESPGLYGFLNV [BCR_Y910]
The phosphorylation enrichment of the first is lower: 0.697 for the first, 0.717 for the second.

First: FKPGFYNLKEK [LAMA1_Y490_C485Y_YF]
Second: DAICFYRMENA [NPHS2_Y195_YF]
The phosphorylation enrichment of the first is lower: 0.473 for the first, 0.914 for the second.

First: WFKKFYDANYD [MAPRE2_Y158]
Second: AHAGEYGVEAL [HBA1_Y25_A27V]
The phosphorylation enrichment of the first is higher: 0.774 for the first, 0.595 for the second.

Compared with TVMGLYQKSSL [MYH7_Y609_V606M], PFTRNYYVWAV [CYBA_Y87_R90W] is higher in phosphorylation enrichment: 0.525 for the first, 4.71 for the second.

First: GSETPYMDRTP [ESS2_Y335_V336M]
Second: REVKAYGAGLL [TH_Y419_G414R]
The phosphorylation enrichment of the first is lower: 0.424 for the first, 0.55 for the second.

Compared with HELYVYKSDEN [DOCK3_Y548_C550S], IIEDPYFGNDS [ACP1_Y132_YF] is lower in phosphorylation enrichment: 1.19 for the first, 1.04 for the second.

Compared with RSHLSYDVTPE [IQGAP3_Y1098_P1097S], RLQAAYNLVKR [PFKM_Y103_R100Q] is lower in phosphorylation enrichment: 0.982 for the first, 0.853 for the second.

First: IVFVICDEVVK [SLC25A1_Y297_Y297C]
Second: SSEFHCVGGFF [CTSC_Y347_Y347C_YF]
The phosphorylation enrichment of the first is lower: 0.55 for the first, 0.735 for the second.

Compared with QEIATYRRLQE [KRT14_Y415_L419Q], AHAGKYGAEAL [HBA1_Y25_E24K] is lower in phosphorylation enrichment: 1.1 for the first, 0.451 for the second.

Compared with PGVDIYISPNM [PADI3_Y51], MEFAKYGSLRG [RET_Y809_V804M_YF] is lower in phosphorylation enrichment: 1.68 for the first, 0.454 for the second.

Work on VDSNPYSHLMA [UBA5_Y53_R55H] yielded a phosphorylation enrichment of 0.504.

biological target: FGFR3 (UniProt P22607); test: as above
Sequence (P22607 whole entry, looked up): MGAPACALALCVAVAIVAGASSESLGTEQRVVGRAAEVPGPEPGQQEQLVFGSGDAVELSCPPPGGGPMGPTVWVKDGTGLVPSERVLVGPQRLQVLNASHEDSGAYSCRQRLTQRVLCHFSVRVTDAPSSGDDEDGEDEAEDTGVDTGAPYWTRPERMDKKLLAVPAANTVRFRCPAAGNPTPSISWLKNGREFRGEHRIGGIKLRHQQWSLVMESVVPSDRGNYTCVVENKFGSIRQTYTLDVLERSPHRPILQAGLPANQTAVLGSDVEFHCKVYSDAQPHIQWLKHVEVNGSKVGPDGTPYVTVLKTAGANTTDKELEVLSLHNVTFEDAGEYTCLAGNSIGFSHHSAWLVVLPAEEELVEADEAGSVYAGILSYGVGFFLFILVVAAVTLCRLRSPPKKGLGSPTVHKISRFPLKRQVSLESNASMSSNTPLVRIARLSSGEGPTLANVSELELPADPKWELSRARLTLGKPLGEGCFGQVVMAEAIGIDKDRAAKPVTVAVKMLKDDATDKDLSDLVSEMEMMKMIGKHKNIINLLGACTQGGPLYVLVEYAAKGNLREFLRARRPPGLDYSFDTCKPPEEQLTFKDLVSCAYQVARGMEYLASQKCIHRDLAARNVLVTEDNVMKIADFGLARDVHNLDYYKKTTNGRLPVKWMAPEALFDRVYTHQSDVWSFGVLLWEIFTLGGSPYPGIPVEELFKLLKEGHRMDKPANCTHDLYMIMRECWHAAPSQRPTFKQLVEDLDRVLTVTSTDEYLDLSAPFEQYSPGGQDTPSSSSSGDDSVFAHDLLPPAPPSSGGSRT

Going from CNTIHYNFMCN [TP53_Y234_T230N_YF] to ALWYIYSHTRS [ENG_Y614], the phosphorylation enrichment rises from 0.515 to 1.03.

Compared with RSFSPYDFQPC [TNS1_Y796_YF], NAMRRHIEEFQ [MNS1_Y244_Y244H] is lower in phosphorylation enrichment: 0.788 for the first, 0.497 for the second.

Going from HGAKVYIDPFT [EPHB4_Y590_T587A] to LGGSPYPRVPV [FGFR1_Y701_G703R], the phosphorylation enrichment falls from 0.912 to 0.471.

Going from LSQQVYRVNLS [FAT4_Y480_F475L] to RPFVFYFSFLL [PTEN_Y177_R173P_YF], the phosphorylation enrichment rises from 0.631 to 0.835.

Going from IHADICRWFNI [MARS1_Y344_Y344C] to ESPGLYGFLNV [BCR_Y910], the phosphorylation enrichment falls from 0.675 to 0.646.

Going from FKPGFYNLKEK [LAMA1_Y490_C485Y_YF] to DAICFYRMENA [NPHS2_Y195_YF], the phosphorylation enrichment rises from 0.616 to 0.85.

First: WFKKFYDANYD [MAPRE2_Y158]
Second: AHAGEYGVEAL [HBA1_Y25_A27V]
The phosphorylation enrichment of the first is lower: 0.552 for the first, 0.678 for the second.

Going from TVMGLYQKSSL [MYH7_Y609_V606M] to PFTRNYYVWAV [CYBA_Y87_R90W], the phosphorylation enrichment rises from 0.618 to 8.21.

Compared with GSETPYMDRTP [ESS2_Y335_V336M], REVKAYGAGLL [TH_Y419_G414R] is higher in phosphorylation enrichment: 0.413 for the first, 0.817 for the second.

Compared with HELYVYKSDEN [DOCK3_Y548_C550S], IIEDPYFGNDS [ACP1_Y132_YF] is lower in phosphorylation enrichment: 1.32 for the first, 1.1 for the second.

Going from RSHLSYDVTPE [IQGAP3_Y1098_P1097S] to RLQAAYNLVKR [PFKM_Y103_R100Q], the phosphorylation enrichment falls from 0.924 to 0.489.

Going from IVFVICDEVVK [SLC25A1_Y297_Y297C] to SSEFHCVGGFF [CTSC_Y347_Y347C_YF], the phosphorylation enrichment falls from 0.833 to 0.619.

Going from QEIATYRRLQE [KRT14_Y415_L419Q] to AHAGKYGAEAL [HBA1_Y25_E24K], the phosphorylation enrichment falls from 0.512 to 0.42.

First: PGVDIYISPNM [PADI3_Y51]
Second: MEFAKYGSLRG [RET_Y809_V804M_YF]
The phosphorylation enrichment of the first is higher: 1.11 for the first, 0.448 for the second.

VDSNPYSHLMA [UBA5_Y53_R55H] was tested, and the phosphorylation enrichment was 0.489.

system: AncSZ; test: as above

Compared with CNTIHYNFMCN [TP53_Y234_T230N_YF], ALWYIYSHTRS [ENG_Y614] is higher in phosphorylation enrichment: 0.787 for the first, 1.1 for the second.

Compared with RSFSPYDFQPC [TNS1_Y796_YF], NAMRRHIEEFQ [MNS1_Y244_Y244H] is lower in phosphorylation enrichment: 1.5 for the first, 0.634 for the second.

First: HGAKVYIDPFT [EPHB4_Y590_T587A]
Second: LGGSPYPRVPV [FGFR1_Y701_G703R]
The phosphorylation enrichment of the first is higher: 0.986 for the first, 0.435 for the second.

Going from LSQQVYRVNLS [FAT4_Y480_F475L] to RPFVFYFSFLL [PTEN_Y177_R173P_YF], the phosphorylation enrichment rises from 0.821 to 1.29.

Going from IHADICRWFNI [MARS1_Y344_Y344C] to ESPGLYGFLNV [BCR_Y910], the phosphorylation enrichment rises from 0.962 to 1.09.

Compared with FKPGFYNLKEK [LAMA1_Y490_C485Y_YF], DAICFYRMENA [NPHS2_Y195_YF] is higher in phosphorylation enrichment: 0.601 for the first, 1.14 for the second.

Compared with WFKKFYDANYD [MAPRE2_Y158], AHAGEYGVEAL [HBA1_Y25_A27V] is lower in phosphorylation enrichment: 1.18 for the first, 0.83 for the second.

First: TVMGLYQKSSL [MYH7_Y609_V606M]
Second: PFTRNYYVWAV [CYBA_Y87_R90W]
The phosphorylation enrichment of the first is lower: 0.824 for the first, 1.41 for the second.

Compared with GSETPYMDRTP [ESS2_Y335_V336M], REVKAYGAGLL [TH_Y419_G414R] is lower in phosphorylation enrichment: 0.662 for the first, 0.559 for the second.

Compared with HELYVYKSDEN [DOCK3_Y548_C550S], IIEDPYFGNDS [ACP1_Y132_YF] is lower in phosphorylation enrichment: 1.7 for the first, 1.59 for the second.

Going from RSHLSYDVTPE [IQGAP3_Y1098_P1097S] to RLQAAYNLVKR [PFKM_Y103_R100Q], the phosphorylation enrichment rises from 0.733 to 0.787.

Going from IVFVICDEVVK [SLC25A1_Y297_Y297C] to SSEFHCVGGFF [CTSC_Y347_Y347C_YF], the phosphorylation enrichment falls from 1.15 to 0.997.

Compared with QEIATYRRLQE [KRT14_Y415_L419Q], AHAGKYGAEAL [HBA1_Y25_E24K] is lower in phosphorylation enrichment: 0.926 for the first, 0.677 for the second.

First: PGVDIYISPNM [PADI3_Y51]
Second: MEFAKYGSLRG [RET_Y809_V804M_YF]
The phosphorylation enrichment of the first is higher: 1.64 for the first, 0.604 for the second.

VDSNPYSHLMA [UBA5_Y53_R55H] was tested, and the phosphorylation enrichment was 0.669.
